{"source": "patent US20060057623", "biological_target": "HDAC1 (histone deacetylase 1), wild-type (UniProt Q13547)", "sequence (Q13547 whole entry)": "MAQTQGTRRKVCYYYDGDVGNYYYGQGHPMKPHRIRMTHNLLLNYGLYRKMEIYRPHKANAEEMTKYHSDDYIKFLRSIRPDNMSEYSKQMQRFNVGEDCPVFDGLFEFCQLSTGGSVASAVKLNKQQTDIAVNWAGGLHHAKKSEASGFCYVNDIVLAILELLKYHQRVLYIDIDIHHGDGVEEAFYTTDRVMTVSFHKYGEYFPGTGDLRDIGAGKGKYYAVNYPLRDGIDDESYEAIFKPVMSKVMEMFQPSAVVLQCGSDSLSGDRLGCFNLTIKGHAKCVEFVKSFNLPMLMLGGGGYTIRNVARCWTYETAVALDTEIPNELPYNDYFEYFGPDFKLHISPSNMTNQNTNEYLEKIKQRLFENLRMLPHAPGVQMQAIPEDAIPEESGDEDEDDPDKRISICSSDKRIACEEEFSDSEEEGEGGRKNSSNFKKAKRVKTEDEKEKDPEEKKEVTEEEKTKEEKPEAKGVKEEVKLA"}
{"substance": "SENP1 catalytically inactive mutant (R630L, K631M)", "values": [{"measurement": "deacetylase activity of HDAC1 precipitates", "value": "expression of SENP1 mutant did not affect HDAC1's deacetylase activity"}]}
